The target of series [1] is m128p (CTD, RRM, 3.5 of 14 CC heptads) (UniProt Q9UN81). Description: optical tweezers (koff/kon). The following applies: Binding buffer with 50 mM Na+ (pH and other components not in the material), 21 C (stated for m128p); 8.1 knt ssDNA held at 5-50 pN.
The target in series [2] is ORF1p WT (111p) (UniProt Q9UN81). Description: optical tweezers (koff/kon). The settings on record: 30 pN tension, 1 nM ORF1p; Binding buffer with 50 mM Na+ (pH and other components not in the material), 21 C (stated for m128p); 8.1 knt ssDNA held at 5-50 pN.
The target is the same in series [3]. Description: optical tweezers. The settings on record: 30 pN; K* = compact and de-compact states equally occupied, not a simple Kd; Binding buffer with 50 mM Na+ (pH and other components not in the material), 21 C (stated for m128p); 8.1 knt ssDNA held at 5-50 pN.
Series [4] addresses ORF1p WT (111p) (UniProt Q9UN81 1-338). Description: confocal fluorescence with optical tweezers; 30 nM ORF1p bound to tethered 8.1 knt ssDNA (ternary complex), 10 and 30 pN; Binding buffer with 50 mM Na+ (pH and other components not in the material), 21 C (stated for m128p); 8.1 knt ssDNA held at 5-50 pN. The settings on record: protein: recombinant; tags: N-terminal His; chain copies: 3; label: 5' Alexa488; single strand.

ORF1p WT (111p) (UniProt Q9UN81), sequence (Q9UN81 whole entry): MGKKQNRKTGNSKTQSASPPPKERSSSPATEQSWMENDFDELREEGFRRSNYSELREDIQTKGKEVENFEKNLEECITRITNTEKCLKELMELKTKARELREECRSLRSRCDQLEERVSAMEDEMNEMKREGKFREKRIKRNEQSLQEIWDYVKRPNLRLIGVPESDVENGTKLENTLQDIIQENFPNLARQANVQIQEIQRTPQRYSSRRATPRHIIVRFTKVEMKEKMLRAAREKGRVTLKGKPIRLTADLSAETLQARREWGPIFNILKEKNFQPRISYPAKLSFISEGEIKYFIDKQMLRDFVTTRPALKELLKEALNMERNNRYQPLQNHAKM
ORF1p WT (111p) (UniProt Q9UN81 1-338), sequence (Q9UN81 whole entry): as above
m128p (CTD, RRM, 3.5 of 14 CC heptads), sequence (Q9UN81 128-338): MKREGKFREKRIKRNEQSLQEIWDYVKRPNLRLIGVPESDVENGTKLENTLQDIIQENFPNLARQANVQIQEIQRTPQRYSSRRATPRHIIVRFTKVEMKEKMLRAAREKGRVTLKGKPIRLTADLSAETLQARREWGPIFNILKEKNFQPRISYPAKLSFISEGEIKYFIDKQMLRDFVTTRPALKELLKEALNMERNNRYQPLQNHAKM

One may read the Kd as the equilibrium constant for the complex coming apart. In the case of 8.1 knt ssDNA, the figures for the Kd (in series [1]; with ORF1p WT (111p) [2]) were 1.6 nM and 0.17 nM, respectively. In the series with ORF1p WT (111p) [3], the K half amounted to 2.8 nM.
On to TTTTTTTTTTTTTTTTTTTT (ssDNA) [Alexa488-dT20], for which, in the series with ORF1p WT (111p) [4], the binding result is “binds”.

(Values after paper PMC11662928, “L1-ORF1p nucleoprotein can rapidly assume distinct conformations and simultaneously bind more than one nucleic acid”.)
